{
  "source": "the RNAGym collection of RNA variant scans (doi:10.1093/molbev/msab373)",
  "parents": {"B1": {"name": "Azoarcus group I ribozyme (parent)", "chain": "GUGCCUUGCGCCGGGAAACCACGCAAGGGAUGGUGUCAAAUUCGGCGAAACCUAAGCGCCCGCCCGGGCGUAUGGCAACGCCGAGCCAAGCUUCGGCGCCUGCGCCGAUGAAGGUGUAGAGACUAGACGGCACCCACCUAAGGCAAACGCUAUGGUGAAGGCAUAGUCCAGGGAGUGGCGAAAGUCACACAAACCGG"}},
  "data": [
    {"variants_of": "B1", "assay": "reverse-splicing fitness (ratio to wild type); higher = more active; in vitro selection; Mg2+ level not given", "in_short": "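An in vitro group I ribozyme library with randomized positions was T7-transcribed and gel-purified. In triplicate, 10 pmol RNA in EPPS pH 7.5 was reacted with 50 pmoles of a 30-nt RNA substrate for 1 h at 37 °C across several added MgCl2 levels (1–48 mM), then stopped with EDTA. Products were reverse transcribed from a substrate-complementary primer, PCR-amplified and sequenced (HiSeq 4000). Fitness is a variant's read proportion after selection over that before, normalised to wild type.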", "values": [
      {"variant": "GUGCCUUGCGCCGGGAAACCACGCAAGGGAUGGUGUCAAAUUCGGCGAAACCUAAGCGCCCGCCCGGGCGUAUGGCAACGCUGAGCCAAGCUUCGGCGCCUGCGCCGAUGCAGGUGUAGCGACUAGACGGCACCCACCUAAGGCGAACGUUAUGGUGAAGGCAUAGUCGAGGGAGCGGCGAAAGUCACACAAACCGG", "note": "[C82U A111C A120C A145G C150U C169G U176C]", "reverse-splicing fitness": 0.0151},
      {"variant": "GUGCCUUGCGCCGGGAAACCACGCAAGGGAUGGUGUCAAAUUCGGCGAAACCUAAGCGCCCGCCCGGGCGUAUGGCAACGCUGAGCCAAGCUUCGGCGCCUGCGCCGAUGCAGGUGUAGCGACUAGACGGCACCCACCUAAGGCGAACGUUAUGGUGAAGGCAUAGUCGAGGGAGGGGCGAAAGUCACACAAACCGG", "note": "[C82U A111C A120C A145G C150U C169G U176G]", "reverse-splicing fitness": 0.00547},
      {"variant": "GUGCCUUGCGCCGGGAAACCACGCAAGGGAUGGUGUCAAAUUCGGCGAAACCUAAGCGCCCGCCCGGGCGUAUGGCAACGCUGAGCCAAGCUUCGGCGCCUGCGCCGAUGCAGGUGUAGCGACUAGACGGCACCCACCUAAGGCGAACGUUAUGGUGAAGGCAUAGUCUAGGGAGUGGCGAAAGUCACACAAACCGG", "note": "[C82U A111C A120C A145G C150U C169U]", "reverse-splicing fitness": 0.012},
      {"variant": "GUGCCUUGCGCCGGGAAACCACGCAAGGGAUGGUGUCAAAUUCGGCGAAACCUAAGCGCCCGCCCGGGCGUAUGGCAACGCUGAGCCAAGCUUCGGCGCCUGCGCCGAUGCAGGUGUAGCGACUAGACGGCACCCACCUAAGGCGAACGUUAUGGUGAAGGCAUAGUCUAGGGAGAGGCGAAAGUCACACAAACCGG", "note": "[C82U A111C A120C A145G C150U C169U U176A]", "reverse-splicing fitness": 0.0156},
      {"variant": "GUGCCUUGCGCCGGGAAACCACGCAAGGGAUGGUGUCAAAUUCGGCGAAACCUAAGCGCCCGCCCGGGCGUAUGGCAACGCUGAGCCAAGCUUCGGCGCCUGCGCCGAUGCAGGUGUAGCGACUAGACGGCACCCACCUAAGGCGAACGUUAUGGUGAAGGCAUAGUCUAGGGAGCGGCGAAAGUCACACAAACCGG", "note": "[C82U A111C A120C A145G C150U C169U U176C]", "reverse-splicing fitness": 0.0139},
      {"variant": "GUGCCUUGCGCCGGGAAACCACGCAAGGGAUGGUGUCAAAUUCGGCGAAACCUAAGCGCCCGCCCGGGCGUAUGGCAACGCUGAGCCAAGCUUCGGCGCCUGCGCCGAUGCAGGUGUAGCGACUAGACGGCACCCACCUAAGGCGAACGUUAUGGUGAAGGCAUAGUCUAGGGAGGGGCGAAAGUCACACAAACCGG", "note": "[C82U A111C A120C A145G C150U C169U U176G]", "reverse-splicing fitness": 0.00546},
      {"variant": "GUGCCUUGCGCCGGGAAACCACGCAAGGGAUGGUGUCAAAUUCGGCGAAACCUAAGCGCCCGCCCGGGCGUAUGGCAACGCUGAGCCAAGCUUCGGCGCCUGCGCCGAUGCAGGUGUAGCGACUAGACGGCACCCACCUAAGGCGAACGUUAUGGUGAAGGCAUAGUCCAGGGAGAGGCGAAAGUCACACAAACCGG", "note": "[C82U A111C A120C A145G C150U U176A]", "reverse-splicing fitness": 0.0113},
      {"variant": "GUGCCUUGCGCCGGGAAACCACGCAAGGGAUGGUGUCAAAUUCGGCGAAACCUAAGCGCCCGCCCGGGCGUAUGGCAACGCUGAGCCAAGCUUCGGCGCCUGCGCCGAUGCAGGUGUAGCGACUAGACGGCACCCACCUAAGGCGAACGUUAUGGUGAAGGCAUAGUCCAGGGAGCGGCGAAAGUCACACAAACCGG", "note": "[C82U A111C A120C A145G C150U U176C]", "reverse-splicing fitness": 0.0186},
      {"variant": "GUGCCUUGCGCCGGGAAACCACGCAAGGGAUGGUGUCAAAUUCGGCGAAACCUAAGCGCCCGCCCGGGCGUAUGGCAACGCUGAGCCAAGCUUCGGCGCCUGCGCCGAUGCAGGUGUAGCGACUAGACGGCACCCACCUAAGGCGAACGUUAUGGUGAAGGCAUAGUCCAGGGAGGGGCGAAAGUCACACAAACCGG", "note": "[C82U A111C A120C A145G C150U U176G]", "reverse-splicing fitness": 0.00635},
      {"variant": "GUGCCUUGCGCCGGGAAACCACGCAAGGGAUGGUGUCAAAUUCGGCGAAACCUAAGCGCCCGCCCGGGCGUAUGGCAACGCUGAGCCAAGCUUCGGCGCCUGCGCCGAUGCAGGUGUAGCGACUAGACGGCACCCACCUAAGGCGAACGCUAUGGUGAAGGCAUAGUCAAGGGAGUGGCGAAAGUCACACAAACCGG", "note": "[C82U A111C A120C A145G C169A]", "reverse-splicing fitness": 0.0092},
      {"variant": "GUGCCUUGCGCCGGGAAACCACGCAAGGGAUGGUGUCAAAUUCGGCGAAACCUAAGCGCCCGCCCGGGCGUAUGGCAACGCUGAGCCAAGCUUCGGCGCCUGCGCCGAUGCAGGUGUAGCGACUAGACGGCACCCACCUAAGGCGAACGCUAUGGUGAAGGCAUAGUCAAGGGAGAGGCGAAAGUCACACAAACCGG", "note": "[C82U A111C A120C A145G C169A U176A]", "reverse-splicing fitness": 0.0198},
      {"variant": "GUGCCUUGCGCCGGGAAACCACGCAAGGGAUGGUGUCAAAUUCGGCGAAACCUAAGCGCCCGCCCGGGCGUAUGGCAACGCUGAGCCAAGCUUCGGCGCCUGCGCCGAUGCAGGUGUAGCGACUAGACGGCACCCACCUAAGGCGAACGCUAUGGUGAAGGCAUAGUCAAGGGAGCGGCGAAAGUCACACAAACCGG", "note": "[C82U A111C A120C A145G C169A U176C]", "reverse-splicing fitness": 0.0232},
      {"variant": "GUGCCUUGCGCCGGGAAACCACGCAAGGGAUGGUGUCAAAUUCGGCGAAACCUAAGCGCCCGCCCGGGCGUAUGGCAACGCUGAGCCAAGCUUCGGCGCCUGCGCCGAUGCAGGUGUAGCGACUAGACGGCACCCACCUAAGGCGAACGCUAUGGUGAAGGCAUAGUCAAGGGAGGGGCGAAAGUCACACAAACCGG", "note": "[C82U A111C A120C A145G C169A U176G]", "reverse-splicing fitness": 0.00658},
      {"variant": "GUGCCUUGCGCCGGGAAACCACGCAAGGGAUGGUGUCAAAUUCGGCGAAACCUAAGCGCCCGCCCGGGCGUAUGGCAACGCUGAGCCAAGCUUCGGCGCCUGCGCCGAUGCAGGUGUAGCGACUAGACGGCACCCACCUAAGGCGAACGCUAUGGUGAAGGCAUAGUCGAGGGAGUGGCGAAAGUCACACAAACCGG", "note": "[C82U A111C A120C A145G C169G]", "reverse-splicing fitness": 0.00841},
      {"variant": "GUGCCUUGCGCCGGGAAACCACGCAAGGGAUGGUGUCAAAUUCGGCGAAACCUAAGCGCCCGCCCGGGCGUAUGGCAACGCUGAGCCAAGCUUCGGCGCCUGCGCCGAUGCAGGUGUAGCGACUAGACGGCACCCACCUAAGGCGAACGCUAUGGUGAAGGCAUAGUCGAGGGAGAGGCGAAAGUCACACAAACCGG", "note": "[C82U A111C A120C A145G C169G U176A]", "reverse-splicing fitness": 0.0195}
    ]}
  ]
}
